Data: the DeepSol protein solubility set

Test: soluble on expression in E. coli; label from the status in PepcDB or PDB records

| Sequence | soluble on expression in E. coli |
| --- | --- |
| MKALHFGAGNIGRGFIGKLLADAGIELTFADVNQTVLDALNARHSYQVHVVGENEQVDTVSGVNAVSSIGDEVVDLIAEVDLVTTAVGPVVLERIAPAIAKGLAQRKAQGTERPLNIIACENMVRGTTQLKGHVFNALAEEHKAWVEAHIGFVDSAVDRIVPPSASATHDPLEVTVETFSEWIVDKTQFKGALPTIPGMELTDNLMAFVERKLFTLNTGHAITAYLGKLAGHQTIRDAILDEKIRAVVQGAMEESGAVLIKRYAFDPQKHAAYIQKILGRFENPYLKDDVERVGRQPLRKLSAGDRLIKPLLGTLEYGLPHRNLVKGIAAAMHFRSEDDPQAQELAALIADKGPQAALAQISGLDAASDVVAEAVNDYNAEK | not soluble |
| MKAVGLVVEYNPFHNGHLYHAQTAKLQTGCDTAVAVMSGHFLQRGEPAVVSKWARTKMALQSGVDLVIELPYLYAVQKADIFARGSVSILNELECEALFFGSENGDIKPFLETAQLIDEHKHILNDRIKEELKKGASYPAAAAIAFSSILHTESALDLSKPNNILGYQYVTSILTGGYPMKPYTTARISSDYHDADLPEGENHIASATSIRKAMIGQNLEACLRFLPAASARELAAYRKSFGLWHTPESYFSYLKYSLSTVTARELQQVYEVEEGLEHRIIRSIRKSSSYQEFMELLKTKRYTWTRLQRMNTHILTRTKKQDMQKLLDNDKAPYIRLLGMTKKGQAYLSEKKKALSVPLVSKLSSFSHPALDLDVKASRIYSLPIEEPLRTEFDLQEYG | not soluble |
| MKAVINNTNPENTPPTRAIKRLERDVLRMGALVEQSFRLSHQALFARDLTAAEELPRLDKKIDRFYRQIESDCTSIITLQAPTAQDLRCLSAFMQLVRDLERIGDYAKDLAEIAIKIFPYPPHASLPEIALMSNNAQAMLATSLLALADLDEINGRRLKYLDDDVDHAYNQLYHTLAHQKDVPGVIEPILLLTLAIRCLERMADHATNIGQRVAYIVTGQR | not soluble |
| MKAVVPTGKIYLGSPFYSDAQRERAAKAKELLAKNPSIAHVFFPFDDGFTDPDEKNPEIGGIRSMVWRDATYQNDLTGISNATCGVFLYDMDQLDDGSAFEIGFMRAMHKPVILVPFTEHPEKEKKMNLMIAQGVTTIIDGNTEFEKLADYNFNECPSNPVRGYGIY | soluble |
| MKCKKCGRKAVANLKAYGIALCEKCYPEFYRNLVKRSIKRFRILRPEERVLIAISGGKDSSALAAVLKELDYDAELLYIDLGIGNYSEESERVVRELSSSLDLSLNVVRLRDYGFTVDDVARKMRRKTCSACGTAKRYIMNRFARENSFDVVATGHTAEDIASFYIKNVAGGTRVWAEKLMPRNEPFDEKIVTRAKPLFEVSEKENMLYVLVNDIPHTLMECPHAPNPEWKEIVYDIERRKPGFVKNFVRGLVRPAEEFEETKYCKICGEVSSGDVCAFCRLRERLS | not soluble |
| MKCVVCGRNEAVEHGMCSSCIYDNTNVENIGPVSLVFCPKCGSIRIGKKWYRDSYGNKLLPMLLDEVKCSDVNARISGDEKGIFFDEKNKQIILPVTIKRSNMKDKIQNVAIPYSVTYISCPTCNKITGSYFEATIQLRTVSTKYDNILESVLESIEAIVEKRKKEDAESFISKVEKKPEGIDIYLGKRTDGDVVSSFVLDHFFSSIIVTKTLAGVKDGKKFFRFTYSLRILDAKEGSLEHHHHHH | not soluble |
| MKDCSNGCSAECTGEGGSKEVVGTFKAKDLIVTPATILKEKPDPNNLVFGTVFTDHMLTVEWSSEFGWEKPHIKPLQNLSLHPGSSALHYAVELFEGLKAFRGVDNKIRLFQPNLNMDRMYRSAVRATLPVFDKEELLECIQQLVKLDQEWVPYSTSASLYIRPTFIGTEPSLGVKKPTKALLFVLLSPVGPYFSSGTFNPVSLWANPKYVRAWKGGTGDCKMGGNYGSSLFAQCEAVDNGCQQVLWLYGEDHQITEVGTMNLFLYWINEDGEEELATPPLDGIILPGVTRRCILDLAHQWGEFKVSERYLTMDDLTTALEGNRVREMFGSGTACVVCPVSDILYKGETIHIPTMENGPKLASRILSKLTDIQYGREERDWTIVLS | soluble |
| MKDEISNPDLGAIYTTKILGVLLENWPKQTYLCCSEVTGIDFDEESVFDSFSPQPYPKEWEVCRDLIVWLENEGFIRSEGSRGSSFGFFSVEITMSAMTALNQVPDPLDPESTRTLKDTLKDIAKSGSGKLADKIMDKAFFAFVTMLEKSAG | not soluble |
| MKDFVKGRKIYTRTYNKCDPSLVVVERAKRRLGETKYNPFYNNCEHFARYCKVGIPISDQVENYKSLVGNSGIDASDALLNNGKSIVDTTQNLMKTTLDKISNFWKNDNDDDDGFFEYYLEHHHHHH | not soluble |
| MKEQILEKLKTVKYPGFEKDIVSFNFVKDIKIQDDGVFIDIEIVSANPEVANEIRKNTIEALSSLALKNIELNIITPKIPEEKSNSRSGKNIAPQVKNFIMVSSGKGGVGKSTTTVNLAISMAKMGKRVGILDADIYGPNIPRMLGETKTQPEVVGQRLKPILTHGVYMMSMGVLIEEGQGLMWRGAMIMKAIEQLLADVIWPELDVLFLDMPPGTGDAQITSAQSIPIAAGVCVSTPQTVSLDDSKRALDMFNKLHIPIAGVIENMSGFLCPDNGKEYDIFGKGTAEDMAKAYKSEVLAQIPIEMIVREGGDEGKPVSFYHPESVSSKRYLMAAEKIWSFIEKINNEGGADNSAIQPVMNGKSACSHLEHHHHHH | soluble |
| MKERESVQDQSDPSETDSEELLQLDGKSISEWVSEIDAISKEVEAELVSRDIGCHLVQVLEAVNTVLFDLRGFKRTSITLDPENSYLHSVLNCRCSTAFLISVIYIEVCKRLNVPIVGSPVGEDFLIWPKTEYPEELFKATSGQSLFSIVNGRCVDDPGSMASDLTAKSLQDLDMATNRDIIGIALANLIRLHWRRASKSSHGLMLTSPLSQLNNISSSNFPLLRPQDLRLAIAAAERLLILQPHNWALRRDLGMMLYYDRQYGEAVQELSICMAFAPPEEEAVLEPFVERLHLLRLISSLKPLGSDRLTVP | soluble |
| MKFEILQQLNAERAARRPAIVVTDTATGAQRLVKAADIAADPLAAELGKQLRMGKSASIEIDGRKLFLNVYAPTAKLVIVGAVHISQALAPLARSLGYDVTVVDPRTAFASPERFPDVPLIAEWPDVALPPLNIDHYTAFVALTHDPKIDDPALLHAFARDCFYIGALGSKKTHAKRLERLKGQGASDADLGRIHAPIGLAIGAVSPSEIAVSIMAEITAALRLPASSKAAAA | not soluble |
| MKFIDEYRDPARARALLDRIRQVARHDWTIMEICGGQTHSILRNGIDQLLPPNVQLVHGPGCPVCVTPLETIERALAIAARPNTILTSFGDMLRVPGNSKDLFMARSEGADVRVVFSPLEALQIARDNPSKEVVFLGVGFETTAPANAMAVHQAAREGLTNFSELVSQVMVPPAMRAMLSSPGNRVQGFLAAGHVCAIMGYEEYEPVAAEFGVPIVPAGFEPVDLLDAILKTVELLEAGRSGVVNAYGRVVSREGNPEARRVMQEVFEVADRPWRGIGVIPASGLVLRPEYKRFDAEKRFDVGHIAPQESPLCRSGEVLQGHLKPSDCPAFGKECTPQTPFGATMVSSEGACAAYYRYHRNSNT | soluble |
| MKFKIHSDITYQVMSPTTFIFNVHALRTESQHILDESLIVTPPIEIEEFSYNSGTSRFVRLKATENTTFSMSYTATVDTQYKVIDQRQELETVPVVDLDGDIIPFLFPSRYCQSDKLQKLAYKEFGKIENVYSKVLAITDWIYNNVEYISGSTNSQTSAFDTITERAGVCRDFAHLGIALCRALSIPARYFTGYAFKLNPPDFHACFEAYIGGNWIIFDATRLVPLNGLVKIATGRDAADAAVASIFGNASSTNMHVECASLDTDFTPFWYDKNSLKGLSFQ | soluble |
| MKFKRLRTSENKLYYKAMELYKISFPFHEQRKSSLQEEILKNKEYQFNLIYDKNQFVGIILCWETDDFIYVEHFCIFPEMRNNRYGQRALELLNKKGKTIILEIDLPIDEISIYRKAFYERVKYKTNNYEHIHP | not soluble |
| MKFLPLLALLISPFVSALTLDDLQQRFTEQPVIRAHFDQTRTIKDLPQPLRSQGQMLIARDQGLLWDQTSPFPMQLLLDDKRMVQVINGQPPQIITAENNPQMFQFNHLLRALFQADRKVLEQNFRVEFADKGEGRWTLRLTPTTTPLDKIFNTIDLAGKTYLESIQLNDKQGDRTDIALTQHQLTPAQLTDDERQRFAAQ | not soluble |
| MKFLTVSDDMNFLRQVNTLVAGKGDMDSVIIGEGDAKGLGSKVLYRAKKGTPFDAVSEGILKIAGNYDYIAIGSTEVGREIAGYLSFKTGFYTATEIFSLEFNGQKAHTKRFFYGGKTVIEEESDARILTVAPGVIEAKDLGTTPEIRDLEIGQSRIKITKFVSKAGGSVRLEDAKVIVSVGRGIGSKENIAKIEPLAKALNGEIAGSRPVCMDYGWLSEDRQVGLSGKKVSPKVYIALGISGQIQHIAGMRNSKTVIAINKDKNAPIFQECDYGIVGDLFTVVPKILEQLKQ | not soluble |
| MKGAEALLRALEREGVEVIFGHPGGAIMPTYDALYDSPIRHILVRHEQGGVHAATAYARASGRVGVVMATSGPGALNLVTGLADAMMDSTPVVAITGNVPRALIGTDAFQEADVTGVTMPITKHNYLVQDVNEIPRVVKEAFHIAATGRPGPVLIDIPKDVQLAEFTGSFDVKLDLPGYKPTLKGHPKQIERALDALEKAERPVLMVGGGAQHAHAELLAFAEKTGLPVITTLMGLGAFPGNHPLWLGMPGMHGTVAANRAIHHADVILAIGLRFDDRVTGKVSRFAPHAHTIIHVDIDPAEIGKVVRTHIPIVGDSRLVLKELLKGAKALRLAAWWRELEEWRTRYPLRYRPKPHLQSQEVIRAFYEATGGHAIVTTGVGQHQMFAAQFFPVTRPRSFLTSGGLGTMGVGLPFAIGAKIARPEELVIDFDGDGSFQMTLQELATVVKYKLDVKVVILNNGYLGMVRQWQDLFHAKRYSEVYLADSNPDFARLAEAYGIKGVRVERKEDLMKGVEAVLNADGPVVAEFKVYQEEGVFPMIPAGGAAEDMILEPPEEKEEVGA | soluble |
| MKGGLLVDDEFIHGAARSLTVRKTSLFFAGDGFTVYDCKGSLVFRVDSYGGPNTRDTDEVVLMDAHGRCLLTLRRKRPSLRRRWEGYLGERSDGQKPIFGVRRSSIIGRNSVTVEVYGDYQCSEYLIEGSFGARNCTVVEAETRRKVAEIRRKVDASTNVMLGKDVFSLNVKPGFDGAFAMGLVLVLDQIYGDDLLEVGEEQVHPSAEDL | soluble |
| MKGLILAAGRGTRLRPLTHTRPKPAIRVAGRPIIHYAVENLLEAGVREIGVVVSPETERDLKVALEGYPVRYVLQEEPQGLAHAVDVARGFLGESPFVLYLGDNLFQKGIRRFLEAFKPGVSAVIALVRVEDPRQFGVAVLEGNRVVRLLEKPKDPPSDLAVAGVYVFSPEVLEVVRGLKPSARGEYEITDAIQGLIDRGKTVVGVEVEGWWKDTGRHQDLLDANRLLLEELTPKVEGDVVESQLTGRVVVEKGAKVVRSTVIGPAHIGAGAVVEEAFVGPFTSVGPRARVVRSEVEYSLLEEEAVVEEVRLRLQECILGVRAEVKSRDGLPRAHRLILGDLSQVELA | soluble |
| MKGMSKMPQFNLRWPGGGPQFNLRWPREVLDLVRKVAEENGRSVNSEIYQRVMESFKKEGRIGGTGGSGGGREVLDLVRKVAEENGRSVNSEIYQRVMESFKKEGRIGAHHHHHHKNQHE | soluble |
| MKGTQMLALNKKCWDIVAPYFFQVDCLPKYGPYTASEDEIHLFDSIKGKKVLDIGCGSGHSLQYMAEHGAEELWGLDLSSTQIETAHETLQSWNPKLICGAMEEERDIPKGYFDIVYSIYALGWTSDLRKTLELIYSYVKPGGSFIFSWEHPVYSNLMYGTEEIAFSSSYHEETPITFETFKGEDVQATLYKRKMSTYINELNRVGFTIERIEEPEPSSSFDEKLAEPSTKYYSLHKARMVPTTFIIKARKLEHHHHHH | soluble |
